Measured values taken from the RNAGym collection of RNA variant scans (doi:10.1093/nar/gkz1192).

B1: CPEB3 Ribozyme (parent)
chain: UAACAGGGGGCCACAGCAGAAGCGUUCACGUCGCAGCCCCUGUCAGAUUCUGGUGAAUCUGCGAAUUCUGCUGUAUAUCUC

Variants of: B1
Assay: self-cleavage, relative activity (ratio to wild type); higher = more cleavage; in vitro, sequencing
Summary of the method: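 After error-prone PCR and barcoding, CPEB3 ribozyme mutant libraries were transcribed with T7 RNA polymerase at 37°C for 5 hours, then given 15 min with DNase I before an EDTA stop, and they cleaved during both steps. Reverse transcription with template switching preceded Illumina sequencing. Relative activity divides a variant's cleaved/total read fraction by the unmutated ribozyme's. At least 5 reads were required per variant, and three batches were averaged.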

Variant	self-cleavage
A20G A47U	0.42
A20G A47C	0.44
A20G A47G	0.75
A20G G33C	0.14
A20G G33A	0.35
A20G G33U	0.29
A20G C40U	0.46
A20G C40A	0.23
A20C U67C	0.33
A20G C38A	0.37
A20G C38G	0.12
A20G C38U	0.37
A20C U48C	0.28
G19U U58A	0.04
G19U U58G	0.12
G19U U58C	0.39
A20G U51C	0.85
A20G U51G	0.82
A20G U51A	0.8
A20C C44U	0.22
G19C	0.29
G19U	0.27
G19C A56U	0.19
G19C A56G	0.07

Variant	self-cleavage
A20G U58A	0.27
A20G U58G	0.11
A20G U58C	0.36
G19U U72G	0.4
G19U U72C	0.4
G19U U72A	0.32
G19C U74C	0.19
A20C U54C	0.2
A20G U80C	1.03
A20G U80A	1.03
A20G U80G	1.14
A20G G70C	0.19
A20G G70A	0.33
A20G A45U	0.3
A20G A45C	0.24
A20G A45G	0.61
A20U A28U	0.19
A20U A28G	0.22
A20U A28C	0.18
G19U U60C	0.28
G19U U60A	0.45
A20C U43A	0.35
A20C U43C	0.28
A20C U26A	0.21

Variant	self-cleavage
A20C U26C	0.34
G19C U49A	0.36
G19U U78C	0.32
G19U A21G	0.2
G19U U80A	0.19
G19U U80C	0.26
G19U A20U	0.42
G19U A20G	0.29
A20C U49A	0.16
A20C U49C	0.17
G19U G61A	0.3
G19U G61C	0.13
G19C A28U	0.07
A20G U60A	0.35
A20G U60C	0.34
A20G U67A	0.55
A20G U67C	1.01
A20G U67G	0.25
A20G G30U	0.25
A20G G30C	0.24
A20G G30A	0.3
A20G C44U	0.21
A20G C44A	0.32
A20C U51A	0.32

Variant	self-cleavage
G19U U31C	0.2
G19U U25A	0.19
G19U U25C	0.08
G19U U25G	0.2
A20G C34A	0.11
A20C A45G	0.33
A20C A45U	0.2
A20C A45C	0.35
A20G C50U	0.99
A20G C50A	0.89
A20G C50G	0.57
A20G C29U	0.36
A20G C29G	0.39
A20G A57G	0.7
A20G A57U	0.53
A20G A57C	0.26
A20C U69C	0.18
A20C U69A	0.34
A20U A21U	0.29
A20U A21G	0.23
A20G U41G	0.35
A20G U41C	0.89
A20G U41A	0.28
A20G C59G	0.45

Variant	self-cleavage
A20G C59U	0.82
G19C U41C	0.18
G19C U41G	0.32
G19C U41A	0.44
G19A U67C	0.17
A20G C81A	1.09
A20G C81G	0.88
A20G C81U	1.09
G19C G22A	0.22
A20C C37U	0.13
A20G U78A	0.79
A20G U78C	0.85
G19U A56U	0.14
G19U A56G	0.5
G19C U26C	0.27
A20G A35G	1.25
A20G A35C	0.65
A20G A35U	0.34
A20C G30U	0.05
G19U U74C	0.56
A20G U69A	0.34
A20G U69G	0.42
A20G U69C	0.5
A20C C23A	0.09

Variant	self-cleavage
A20G G63U	0.83
A20G G63C	0.63
A20G G63A	0.63
G19A U72C	0.18
A20C U74C	0.46
A20C A56C	0.22
A20C A56G	0.27
G19U G42A	0.18
A20G U48G	0.31
A20G U48C	0.4
A20G U48A	0.38
A20G C32U	0.22
A20G C32A	0.27
A20G C32G	0.12
A20G A56G	0.66
A20G A56U	0.47
A20U	0.33
A20C	0.3
A20G	0.89
A20C A47U	0.47
A20C A47G	0.45
A20G C27A	0.16
A20G C27U	0.47
G19C U25C	0.06

Variant	self-cleavage
A20C C34U	0.18
G19A U69A	0.14
G19A U69C	0.13
A20C A28G	0.24
G19A U78A	0.47
A20G G22A	0.46
G19U A77U	0.12
A20C U58C	0.43
A20G G42U	0.22
A20G G42A	0.53
G19U A64U	0.15
A20C U66G	0.45
A20C U66C	0.23
G19C U78C	0.71
A20G U26C	0.37
A20G U26A	0.77
A20G U26G	0.36
G19U C50U	0.38
G19U C50A	0.15
A20G A64U	0.31
A20G A64C	0.53
A20G A64G	0.65
G19U G36C	0.19
G19U G36A	0.18

Variant	self-cleavage
G19U G63U	0.28
G19U C40A	0.21
A20G G52U	1.12
A20G G52A	0.9
A20G U25G	0.41
A20G U25C	0.3
A20G U25A	0.27
G19U A35G	0.63
G19U A35U	0.15
A20C U60A	0.43
A20C U60C	0.17
G19U C44U	0.18
G19U C44A	0.43
G19C A75U	0.29
A20C U80C	0.54
A20C U80A	0.51
A20C A57G	0.09
A20G G53A	0.98
A20G G53U	0.69
A20G C37G	0.78
A20G C37A	0.41
A20G C37U	0.62
G19U U49A	0.08
G19U U49C	0.15

Variant	self-cleavage
A20C A77G	0.11
A20C A77U	0.35
A20G C39A	0.37
A20G C39U	0.63
A20G U66A	0.33
A20G U66C	0.37
A20G U66G	0.37
A20G U49A	0.34
A20G U49C	0.31
A20G U49G	0.28
A20G C71U	0.56
A20G C71G	0.14
A20G C71A	0.15
A20G G55U	0.62
A20G G55A	0.58
A20G C79G	1.09
A20G C79U	0.85
A20G C79A	1.09
G19U U76A	0.18
G19U U69C	0.09
G19U U69A	0.27
A20G A28G	0.44
A20G A28C	0.52
A20G A28U	0.58

Variant	self-cleavage
G19C C68U	0.63
A20G U43A	1.05
A20G U43C	0.4
A20G U43G	0.44
G19U C37A	0.31
G19U C37U	0.38
G19U A65G	0.26
G19U A65U	0.09
G19C C37U	0.16
G19C U48A	0.18
G19C U48C	0.35
A20C C32A	0.25
A20G U54G	0.52
A20G U54A	0.97
A20G U54C	0.88
A20G A75U	0.71
A20G A75G	0.81
G19U A47G	0.22
G19U A47U	0.5
A20C C39G	0.07
A20C C29U	0.12
G19U G73U	0.56
G19U G73A	0.51
A20C G24C	0.1

Variant	self-cleavage
A20C G24A	0.21
G19C A57U	0.13
G19C A57G	0.23
A20C U41C	0.29
G19U C32G	0.19
G19C G52U	0.35
G19C G24A	0.11
A20G G73U	1.19
A20G G73A	1.22
G19C G30C	0.25
A20G G61U	0.39
A20C C27A	0.37
G19C A35U	0.22
G19C A35C	0.2
A20U A45U	0.14
A20U A45C	0.12
A20U A45G	0.28
A20C A21U	0.2
A20C A21G	0.49
G19U A28G	0.14
G19U A28U	0.08
A20C U78C	0.4
G19U U67A	0.13
G19U U67C	0.13

Variant	self-cleavage
G19C U60A	0.16
G19C U60C	0.15
A20G U31C	0.56
A20G U31A	0.37
A20G U31G	0.58
A20G U76G	0.99
A20G U76C	0.92
A20G U76A	1.03
G19U U41A	0.22
G19U U41C	0.22
G19U U43A	0.29
G19U U43C	0.1
G19C U67C	0.21
A20C A35G	0.88
A20C A35U	0.17
A20G C62U	0.2
A20G C62G	0.17
A20C A64G	0.07
A20C A64U	0.17
A20U A35U	0.22
A20U A35G	0.87
G19U U48C	0.2
G19U U48A	0.2
A20G G24A	0.29

Variant	self-cleavage
A20G G24U	0.14
A20G U74C	1.17
A20G U74G	1.17
A20G U74A	1.19
A20G G46U	0.23
A20G G46A	0.26
A20G G46C	0.11
G19U A75U	0.28
A20G A65U	0.29
A20G A65G	0.32
A20G A65C	0.13
A20C U25C	0.28
A20C U25A	0.31
G19U U51C	0.22
G19U U51A	0.18
A20C C62U	0.12
A20G A77C	0.79
A20G A77G	0.91
A20G A77U	0.83
G19U A45G	0.08
G19U A45U	0.2
G19U A45C	0.22
G19U A57G	0.48
G19U A57C	0.19

Variant	self-cleavage
G19C A77G	0.24
A20C U72C	0.3
A20C U72G	0.09
A20C U72A	0.33
A20G C68U	0.75
A20G C68A	0.24
A20G U72A	0.46
A20G U72C	0.84
A20G U72G	0.63
G19U C81U	0.34
G19A U80A	0.58
G19A U80C	0.27
A20C A65G	0.42
A20G A21G	0.37
A20G A21U	0.26
A20G A21C	0.32
A20C U31C	0.14
A20G C23U	0.38
A20G G36A	0.36
G19C A20U	0.4
G19C G53A	0.09
G19C C40U	0.29
